According to patent US12552837B2, “Bicyclic peptide ligands with detectable moieties and uses thereof” (BicycleRD Limited, priority 2017, dated 2026):
*1 amine or outer side, *2 acyl side, *3 side chain or, on linkers, in order; H or OH if unused. Where a SMILES comes first, the peptide text is derived from it. Bridges are numbered along the chain shown (N, C = ends). [ ]: non-standard residue; d: D form. The star is where a group is joined. DOTA = O=C(O)CN1CCN(CC(=O)O)CCN(CC(=O)*)CCN(CC(=O)O)CC1; 1Nal = N[C@@H](Cc1cccc2ccccc12)C(=O)O; TBMB = c1c(C[*:1])cc(C[*:3])cc1C[*:2]; Tle = CC(C)(C)[C@H](N)C(=O)O

System: xenograft tumor
Assay: μPET imaging with 68Ga-labelled Bicycle peptides in xenograft mice
Type: in vivo
Details: 150 pmoles
Description: General method for μPET imaging: the mice were anaesthetized (2% sevoflurane, Abbott), placed into the small animal PET scanner (Inveon PET, Siemens) and injected with 68Ga-labeled Bicycle peptides. A 20 min transmission scan, a 50 min dynamic scan and a static scan from 100 to 120 min p.i. were performed. Images were reconstructed iteratively using the space alternating generalized expectation maximization method (SAGE, 16 subsets, 4 iterations) applying median root prior correction and were converted to standardized uptake value (SUV) images. Quantitation was done using a ROI (region of interest) technique and expressed as SUVmean.
General method for radiolabeling with Ga-68: ^68Ga (half-life 68 min; β^+ 89%; Eβ+max. 1.9 MeV) was obtained from a in house ^68Ge/^68Ga generator based on pyrogallol resin support. 1 GBq ^68Ga was eluted using 5.5 M HCl. The activity was trapped on a small anion-exchanger cartridge (AG1X8, Biorad, Richmond, CA, USA) as [^68Ga]GaCl4^−. The radiogallium was eluted from the cartridge in a final volume of 300 μL ultrapure water (Merck, Darmstadt, Germany) as [^68Ga]GaCl3.
1 nmol Bicycle peptide in 1 μL DMSO was added to a mixture of 50 μL 0.05 M HEPES, 0.1% Tween-20, and 80 μL [^68Ga]Ga^3+ eluate (˜200 MBq). The pH of the labelling solution was adjusted to 4.2 using 30% NaOH. The reaction mixture was incubated at 98° C. for 10 minutes. The radiochemical yield (RCY) was determined using reversed-phase high performance liquid chromatography (RP-HPLC; Chromolith RP-18e, 100×4.6 mm; Merck, Darmstadt, Germany). The analytical HPLC run was performed using a linear A-B gradient (0% B to 100% B in 6 min) at a flow rate of 4 mL/min. Solvent A consisted of 0.1% aqueous TFA and solvent B was 0.1% TFA in CH3CN.
For μPET imaging, the labelling reaction mixture was diluted in injection buffer (0.25 M Na-Acetate 0.05% Tween-20 pH 7) by a factor of 6 to obtain 150 pmoles in 100 μL injection buffer. The anaesthetized mouse (2% sevoflurane, Abbott) was injected with 100 μL of ^68Ga-labelled I-23 (˜25 MBq) and placed in a small animal PET scanner (Inveon PET, Siemens). The imaging was performed 60 min post-injection and included a 15 min transmission scan before injection and a 60 min emission scan post-injection. Scans from μPET imaging were reconstructed iteratively using the space alternating generalized expectation maximization method (SAGE, 16 subsets, 4 iterations) applying median root prior correction and were converted to standardized uptake value (SUV) images. Quantitation was accomplished using an ROI (region of interest) technique and expressed as SUVmean.
The radiolabelling with Ga-68 was done as described before. […] Quantitation was accomplished using an ROI (region of interest) technique and expressed as SUVmean. […]

C[C@H](NC(=O)CN1CCN(CC(=O)O)CCN(CC(=O)O)CCN(CC(=O)O)CC1)C(=O)N[C@H]1CSCc2cc3cc(c2)CSC[C@H](NC(=O)[C@@H](C)NC(=O)[C@H](Cc2cccc4ccccc24)NC(=O)[C@H](CCC(=O)O)NC(=O)[C@H](CC(N)=O)NC(=O)[C@@H](C)NC1=O)C(=O)N[C@@H](CCC(=O)O)C(=O)N[C@@H](CC(=O)O)C(=O)N[C@@H](Cc1ccccc1)C(=O)N[C@@H](Cc1ccc(O)cc1)C(=O)N[C@@H](CC(=O)O)C(=O)N[C@@H](C(C)(C)C)C(=O)N[C@H](C(N)=O)CSC3 [I-23] ({DOTA}-AC[dA]NE[1Nal][dA]CEDFYD[Tle]C-NH2; linker 2-8-15 via TBMB)
time post injection from which high imaging contrasts are seen: 20 min
tumor uptake in μPET images: MMP-14-selective tumor uptake
